For data set [1], the system named is sarcoma SJSA-1 tumor model. Briefly: Efficacy in animal model of sarcoma SJSA-1, 30 mg/kg once a week for two weeks (Example 40). Type of data set: in vivo, BALB/c mice. The settings on record: 30 mg/kg once a week for two weeks; Day 14. On the procedure: Test objective: To further compare the antitumor efficacy of different polypeptide Linkers in an animal tumor model of sarcoma SJSA-1.
(§1) Test drug: Polypeptide conjugate and normal saline control group.
The control group was administered normal saline. Administration was performed once a week for two weeks.

Data set [2] in a line: Homogenate activation efficiency, heart tissue (Examples 28, 37). Type of data set: in vitro ADME. The settings on record: pH 5.0, 37° C., 2 h; Table 10.
Data set [3] concerns colo320 (colorectal cancer tissue). Briefly: cells. In kind it is cell-based. The following applies: CCK8, 48 h; Table 6. The essentials: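 Colo320 cells, 5,000 per well, exposed to drug concentration series for 48 h at 37 °C, 5% CO2 (0.1% DMSO controls). Viability by CCK8, absorbance at 450 nm after about 2 h. Survival rates and IC50 calculated.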
Data set [4] is described as follows: MTD determination in mice (Examples 27, 36, 44). In kind it is in vivo. The settings on record: female, mouse, in vivo; mice, monitored for 14 d; Table 9. The text has this:
Test animals: 6-8 weeks old mice, all female; mice were grouped randomly, with six mice in each group, administered with drugs at different concentration gradients separately and monitored for 14 d. A mouse was euthanized at a loss of 20% of its initial weight and deemed to have died of poisoning.

Data set [5] is described as follows: Tumor homogenate activation efficiency, sarcoma tissue (Examples 28, 37). Type of data set: in vitro ADME. The following applies: pH 5.0, 37° C., 2 h; Table 10. The essentials:
(§2)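 Each conjugate, dissolved at 1 mg/ml in acidic MES saline (pH 5.0), was exposed to 100 μg homogenate for 2 h at 37° C; released Belotecan was quantified by HPLC peak areas.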

The subject of data set [6] is A2780 ovarian cancer tumor model. Nature of the data set: Efficacy in animal model of A2780 ovarian cancer, 30 mg/kg once a week for two weeks (Example 41). In kind it is in vivo, BALB/c mice. The settings on record: Day 14. The procedure: Test objective: To further compare the antitumor efficacy of different polypeptide Linkers in an animal tumor model of A2780 ovarian cancer.
as §1
8×10^6 corresponding cells were injected into right axillas of nude mice subcutaneously. […] The negative control group was administered normal saline. Administration was performed once a week for two weeks.

Data set [7] can be described thus: Tumor homogenate activation efficiency, ovarian cancer tissue (Examples 28, 37). In kind it is in vitro ADME. The settings on record: pH 5.0, 37° C., 2 h; Table 10. The essentials:
as §2

Data set [8] has as its system sarcoma SJSA-1 tumor model. The settings on record: Table 7. The essentials: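 Female BALB/c nude mice (6-8 weeks) bearing subcutaneous right-chest SJSA-1 xenografts from 2×10^7 cells were randomized, three per group, once tumors reached at least 100 mm^3. Treatment given once a week for three weeks starting day 1; saline controls.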
Data set [9] is described as follows: Tumor homogenate activation efficiency, colorectal cancer tissue (Example 37). In kind it is in vitro ADME. The following applies: pH 5.0, 37° C., 2 h; Table 10. The procedure: Buffer preparation: 50 mM PH buffer (MES), 250 mM NaCl, pH adjusted to 5.0 with 0.5 M of sodium hydroxide.
The polypeptide conjugate was prepared into a 1 mg/ml solution with pH 5.0 buffer, 100 μg of tumor tissue homogenate was added, (the tumor tissue homogenate was the homogenate of tumor tissues prepared with a Jingxin F6/10 handheld homogenizer), and the solution was placed at 37° C. for 2 h. The tumor tissue homogenate could effectively activate the polypeptide conjugate and release Belotecan, and the activation efficiencies of the drugs in tumor tissues were compared by HPLC allowing determination of a decrease in the compounds and an increase in Belotecan:
Release percentage=peak area of Belotecan/total peak area of Belotecan and all other Belotecan-containing compounds

Data set [10] in a line: Tumor homogenate activation efficiency, breast cancer tissue (Examples 28, 37). In kind it is in vitro ADME. The following applies: pH 5.0, 37° C., 2 h; Table 10. The method in brief: as §2
In data set [11] the test system is A549 (non-small cell lung cancer). Nature of the data set: cells. In kind it is cell-based. The following applies: CCK8, 48 h; Table 6. The essentials:
(§3)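 Viability read by CCK8 absorbance at 450 nm (~2 h stain) after 48 h drug treatment at 37° C. of 5,000 cells/well, triplicate wells, in RPMI1640 or DMEM high-glucose medium containing 10% FBS and 1 mM pyruvate. Survival relative to 0.1% DMSO controls gave IC50 values.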

Another data set relates to A2780 (ovarian cancer). Briefly: cells. The following applies: CCK8, 48 h; Table 6. Type of data set: cell-based. The essentials: as §3
For a further data set, the system named is SJSA-1 (sarcoma tissue). Nature of the data set: cells. Type of data set: cell-based. The settings on record: CCK8, 48 h; Table 6. The method in brief: as §3
The subject of data set [12] is SKBR3 (breast cancer tissue). Briefly: cells. In kind it is cell-based. The following applies: CCK8, 48 h; Table 6. The essentials: as §3
Data set [13] deals with colo320 colorectal cancer tumor model. The following applies: Table 8. The method in brief: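 Dosing was once a week for four weeks, with saline as control, in randomized groups of three mice. Groups were formed after subcutaneous colo320 xenografts (7.5×10^6 cells, right chest) grew to ≥120 mm^3 in female 6–8-week-old BALB/c nude mice.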
A short description of data set [14]: Tumor homogenate activation efficiency, non-small cell lung cancer tissue (Examples 28, 37). The settings on record: pH 5.0, 37° C., 2 h; Table 10. In kind it is in vitro ADME. The essentials:
as §2

[15] abbreviates: 15 mg/kg once a week for three weeks.
The mark [16] stands for this setting: 45 mg/kg once a week for three weeks.
Where [17] appears, read: 15 mg/kg once a week for four weeks.
Where [18] appears, read: 45 mg/kg once a week for four weeks.

In brackets after ≈: the same amount, converted by molar mass. Like-named read-outs stand apart in the source and are kept apart here. Where a SMILES comes first, the peptide text is derived from it. The star is where a group is joined. X1 = CC[C@@]1(O)C(=O)OCc2c1cc1n(c2=O)Cc2c-1nc1ccccc1c2CCN(C1CCC1)*; X3 = CC[C@@]1(O)C(=O)OCc2c1cc1n(c2=O)Cc2c-1nc1ccccc1c2CCN(C1CC1)*; Propanoyl(3-maleimido) = O=C1C=CC(=O)N1CCC(=O)*; PEG6 = NCCOCCOCCOCCOCCOCCOCCC(=O)O

`CC[C@@]1(O)C(=O)OCc2c1cc1n(c2=O)Cc2c-1nc1ccccc1c2CCN(C(=O)[C@H](CC(C)C)NC(=O)[C@H](CC(N)=O)NC(=O)[C@H](C)NC(=O)[C@H](C)NC(=O)CCOCCOCCOCCOCCOCCOCCNC(=O)CCN1C(=O)C=CC1=O)C1CC1` [MI-6PEG-AANL-D6] ({Propanoyl(3-maleimido)-PEG6}-AANL-X3): the “Mouse weight (%) on Day 14” value in [1] was −2.5%; in data set [6] it was “+5.2%”. Besides, the “Percentage of release efficiency (%) Heart tissue” value in [2] stood at 3%. Also, the “IC50 Colorectal cancer tissue (colo320)” value in data set [3] amounted to 1.87 µg/mL (≈ 1.45 µM). This molecule also registered an MTD at 14 d in [4] of 120 mg/kg. The “Percentage of release efficiency (%) Sarcoma tissue (SJSA1)” value in data set [5] is 69.5%. The “Percentage of release efficiency (%) Ovarian cancer tissue (A2780)” value in data set [7] is listed as 76.2%. The “Mouse weight (%)” value was “+19%” in data set [8] (setting [15]), “+17%” in [8] (setting [16]), “+25%” in data set [13] (setting [17]) and “+5%” in [13] (setting [18]). The “Percentage of release efficiency (%) Colorectal cancer tissue (colo320)” value in data set [9] is recorded as 73.5%. In data set [10], the “Percentage of release efficiency (%) Breast cancer tissue (SKBR3)” value is on record as 66.9%. In addition, the “IC50 Non-small cell lung cancer tissue (A549)” value in data set [11] was 1.38 µg/mL (≈ 1.07 µM). Besides, the “IC50 Ovarian cancer tissue (A2780)” value in the data set on A2780 (ovarian cancer) turned out to be 0.70 µg/mL (≈ 0.544 µM). Besides, in the data set on SJSA-1 (sarcoma tissue), the “IC50 Sarcoma tissue (SJSA-1)” value stood at 0.51 µg/mL (≈ 0.396 µM). The “IC50 Breast cancer tissue (SKBR3)” value in data set [12] came out at 2.02 µg/mL (≈ 1.57 µM). Moreover, the “Percentage of release efficiency (%) Non-small cell lung cancer tissue (A549)” value in [14] stood at 66.1%.
Take `CC[C@@]1(O)C(=O)OCc2c1cc1n(c2=O)Cc2c-1nc1ccccc1c2CCN(C(=O)[C@H](CC(C)C)NC(=O)[C@H](CC(N)=O)NC(=O)[C@H](C)NC(=O)[C@H](C)NC(=O)CCOCCOCCOCCOCCOCCOCCNC(=O)CCN1C(=O)C=CC1=O)C1CCC1` [MI-6PEG-AANL-D7] ({Propanoyl(3-maleimido)-PEG6}-AANL-X1): the “Mouse weight (%) on Day 14” value in data set [1] was −3.3%; in data set [6], “+4.8%”. Also, in data set [2], the “Percentage of release efficiency (%) Heart tissue” value stood at 2.2%. The “IC50 Colorectal cancer tissue (colo320)” value in data set [3] was found to be 2.48 µg/mL (≈ 1.91 µM). In data set [4], the MTD at 14 d amounted to 150 mg/kg. In addition, in [5], the “Percentage of release efficiency (%) Sarcoma tissue (SJSA1)” value is recorded as 71.7%. In addition, in data set [7], the “Percentage of release efficiency (%) Ovarian cancer tissue (A2780)” value is 66.7%. The “Mouse weight (%)” value is given as “+12%” in [8] (setting [15]), “+19%” in [8] (setting [16]), “+29%” in [13] (setting [17]) and “+9%” in data set [13] (setting [18]). Also, in [9], the “Percentage of release efficiency (%) Colorectal cancer tissue (colo320)” value was 76.4%. Besides, the “Percentage of release efficiency (%) Breast cancer tissue (SKBR3)” value in [10] is listed as 72.3%. In addition, the “IC50 Non-small cell lung cancer tissue (A549)” value in data set [11] turned out to be 1.81 µg/mL (≈ 1.39 µM). For the same molecule, in the data set on A2780 (ovarian cancer), the “IC50 Ovarian cancer tissue (A2780)” value is 0.91 µg/mL (≈ 0.699 µM). Besides, the “IC50 Sarcoma tissue (SJSA-1)” value in the data set with SJSA-1 (sarcoma tissue) amounted to 1.33 µg/mL (≈ 1.02 µM). Besides, the “IC50 Breast cancer tissue (SKBR3)” value in [12] worked out at 2.01 µg/mL (≈ 1.54 µM). Moreover, the “Percentage of release efficiency (%) Non-small cell lung cancer tissue (A549)” value in data set [14] is recorded as 74.6%.

Source of the values: patent US20250235545A1, “POLYPEPTIDE CONJUGATE AND USE THEREOF” (SHANGHAI CHIXI BIOMEDICAL TECHNOLOGY CO., LTD, priority 2024, published 2025).
